Laboratory results taken from paper PMC10475850.

Assays:
[1] = biological target: Csp1 (cysteine-rich helical bundle copper-storage protein); test: SEC; analytical size exclusion of the purified protein (Figure S8); conditions not given
[2] = biological target: Recombinant Human EGF (human)
[3] = biological target: Recombinant Human EGF (human); test: SPR; Biacore X100, multi-cycle kinetics; EGF amine-coupled to CM5 chip (100 μg/mL, acetate pH 4.0); binders injected at five concentrations (nanomolar range) 120 s, 180 s dissociation; PBS with 0.05% Tween-20, 25°C, 10 μL/min; global fit
[4] = biological target: Recombinant Human HB-EGF (human); test: SPR; Biacore X100, multi-cycle kinetics; HB-EGF amine-coupled to CM5 chip (20 μg/mL, acetate pH 5.0); binders injected at five concentrations (nanomolar range) 180 s, 180 s dissociation; PBS with 0.05% Tween-20, 25°C, 10 μL/min; global fit
[5] = biological target: Recombinant Human TGF-alpha (human); test: SPR; Biacore X100, multi-cycle kinetics; TGF-α amine-coupled to CM5 chip (100 μg/mL, acetate pH 4.5); binders injected at five concentrations (nanomolar to low micromolar range) 60 s, 60 s dissociation; PBS with 0.05% Tween-20, 25°C, 10 μL/min; global fit

Row | stoichiometry N [1] | IC50 of inhibition of proliferation of A431 cells stimulated with 400 pM EGF (EGF acting on EGFR), d3-WT at 0.032-500 nM, 72 h [2] [µM] | Kd [3] [nM] | koff [3] [s⁻¹] | kon [3] [M⁻¹ s⁻¹] | Kd [4] [nM] | koff [4] [s⁻¹] | kon [4] [M⁻¹ s⁻¹] | Kd [5] [nM] | koff [5] [s⁻¹] | kon [5] [M⁻¹ s⁻¹] | Substance
1 | 4 | – | – | – | – | – | – | – | – | – | – | Csp1 (cysteine-rich helical bundle copper-storage protein) (natural protein)
2 | – | 0.476 | 56 | 0.0028 | 49700 | 370 | 0.0107 | 47200 | 2550 | 0.0577 | 38400 | human EGFR domain 3 (d3-WT) (domain or fragment)
